Consider three molecules from patent US20110160440A1, “Cab Molecules” (GENENCOR INTERNATIONAL, INC., priority 2003, published 2011).

Residue numbers refer to the chain shown, from its start.

The target of series [1] is T1, CEA (carcinoembryonic antigen) (Homo sapiens, UniProt P06731).
T1 construct: purchased Biodesign Intl., Saco, Me
T1 sequence (P06731 35-676): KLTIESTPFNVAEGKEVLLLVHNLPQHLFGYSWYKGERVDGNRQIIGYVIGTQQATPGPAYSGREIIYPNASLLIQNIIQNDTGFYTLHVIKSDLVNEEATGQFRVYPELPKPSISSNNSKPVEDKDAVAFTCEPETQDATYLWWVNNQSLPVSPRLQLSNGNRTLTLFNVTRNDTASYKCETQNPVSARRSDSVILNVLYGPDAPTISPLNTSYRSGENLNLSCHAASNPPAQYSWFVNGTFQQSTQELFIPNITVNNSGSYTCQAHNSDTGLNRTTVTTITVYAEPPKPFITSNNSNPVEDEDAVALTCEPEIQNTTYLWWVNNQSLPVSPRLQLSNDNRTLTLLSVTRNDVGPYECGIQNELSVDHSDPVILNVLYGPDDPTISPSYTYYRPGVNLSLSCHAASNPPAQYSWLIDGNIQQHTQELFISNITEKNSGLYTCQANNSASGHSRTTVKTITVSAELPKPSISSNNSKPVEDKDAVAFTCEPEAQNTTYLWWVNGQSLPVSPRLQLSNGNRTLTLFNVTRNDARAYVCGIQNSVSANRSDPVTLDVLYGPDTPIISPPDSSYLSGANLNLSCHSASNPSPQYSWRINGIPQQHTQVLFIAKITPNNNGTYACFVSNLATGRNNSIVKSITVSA
In words: CEA-binding assay on CEA-coated plates, bound BLA activity read with nitrocefin. The conditions noted are these: for binding to CEA / affinity in library screening: relative to parent clone. The protocol: (§1) Binding to CEA (carcinoembryonic antigen, Biodesign Intl., Saco, Me.) was measured using the following procedure: 96-well plates were coated with 100 ul per well of 5 ug/ml of CEA in 50 mM carbonate buffer pH 9.6 overnight. The plates were washed with PBST and blocked for 1-2 hours with 300 ul of casein (Pierce, Rockford, Ill.). 100 ul of sample from the production plate diluted 100-1000 fold was added to the CEA-coated plate and the plates were incubated for 2 h at room temperature. Subsequently, the plates were washed four times with PBST and 200 ul nitrocefin assay buffer was added, and the BLA activity was measured as described above.
as §1, with “Biodesign Intl., Saco. Me.) was” for “Biodesign Intl., Saco, Me.) was”, “Ill.). 100 n1 of sample” for “Ill.). 100 ul of sample”, “to the CEA coated plate and” for “to the CEA-coated plate and”, “described above. CEA binding was measured in 50 mM phosphate buffer pH 6.5 and in a separate experiment in 50 mM phosphate buffer pH 7.4.” for “described above.”
Winners were confirmed by culturing them in 5 ml of LB medium containing 5 mg/l chloramphenicol and 0.1 mg/l cefotaxime (Sigma) for 2 days at 37 C. Subsequently, the cultures were centrifuged and the pellet was suspended in 375 ul of BPER reagent to release the fusion protein. BLA activity was determined as above. One unit of activity was defined as the amount of BLA that leads to an absorbance increase of one mOD per minute. The samples were diluted based on their total content of BLA activity and the CEA-binding assay was performed as described above but adding various sample dilutions to each well.
In order to compare the target-binding properties of various CAB1 variants, we grew 5 ml cultures of TOP10F′ containing the corresponding expression plasmids, as provided above for 3 days at 25 C in LB medium containing 5 mg/l chloramphenicol. The cultures were centrifuged, and the resulting supernatant was discarded. The cell pellets were resuspended in 500 μL of B-PER reagent. This was incubated for 30 minutes. Lactamase concentration in each sample was determined using nitrocephin as substrate, as provided above.
Binding of the samples to microtiter plates coated with CEA was studied in 50 mM phosphate buffer at pH 6.5 and pH 7.4, as provided above.

The subject of another series is LS174T cells. The series is described as follows: Binding of CAB variants to fixed LS174T cells. Further details: species or system human. The protocol: In a similar experiment, binding of variants to LS174T cells was measured. LS174T cells were inoculated in 96 well polystyrene plate at 1×10^5 cells/well in a medium containing 70% DMEM, 30% F12, non-essential amino acids, L-Glut, and Sodium Pyruvate (all from Mediatech). The plate was incubated at 37° C. in a humidified CO2 incubator for 20 hours. The cells were then fixed with 4% formaldehyde in PBS (Polysciences, Warrington, Pa.). The plate was washed with PBST, and 1 mg/ml NaBH4 (Sigma) was added into each well to quench any reactive group. Then the plate was washed again with PBST. Binding of CAB molecules was continued the same way as binding to CEA antigen.

In a further series the test system is host proteases. In words: Screen for improved expression: total BLA activity and CEA-bound BLA activity of CAB1 fusion variants after 3 days of culture (resistance to host proteases). Conditions: limited randomized library on pSW129.5 template. On the procedure:
Degradation seems to occur mainly in the scFv portion of the CAB1 fusion protein as the cultures contain significant amounts of free BLA after 3 days, which can be detected by Western blotting, or a nitrocefin (Oxoid, N.Y.) activity assay. Thus we applied a screen to library NA05 that was able to detect variants of CAB1-scFv that would resist degradation by host proteases over 3 days of culture at 37 C.
Library NA05 was plated onto agar plates with LA medium containing 5 mg/l chloramphenicol and 0.1 mg/l cefotaxime (Sigma). 910 colonies were transferred into a total of 10 96-well plates containing 100 ul/well of LA medium containing 5 mg/l chloramphenicol and 0.1 mg/l cefotaxime. […] The production plate was diluted 100-fold in PBST (PBS containing 0.125% Tween-20) and BLA activity was measured by transferring 20 ul diluted lysate into 180 ul of nitrocephin assay buffer (0.1 mg/ml nitrocephin in 50 mM PBS buffer containing 0.125% octylglucopyranoside (Sigma)) and the BLA activity was determined at 490 inn using a Spectramax plus plate reader (Molecular Devices, Sunnyvale, Calif.).
Binding to CEA (carcinoembryonic antigen, Biodesign Intl., Saco, Me.) was measured using the following procedure: 96-well plates were coated with 100 ul per well of 5 ug/ml of CEA in 50 mM carbonate buffer pH 9.6 overnight. […]

B1: CAB1.4 (protein)
chain: QVQLQQSGAELVKSGGSVKLSCTASGFNIKDSYMHWVRQGPEQGLEWIGWIDPENGDTEYAPKFQGKATFTTDTSSNTAYLQLSSLTSEDTAVYYCNEGTPTGPYYFDYWGQGTTVTVSSGGGGSGGGGSGGGGSENVLTQSPAIVSASPGEKVTITCSASSSVSYMHWFQQKPGTSPKLVIYDTSNLASGVPARFSGSGSGTSYSLTISRMEAEDAATYYCQQRDSYPLTFGAGTKLELKRAATPVSEKQLAEVVANTITPLMKAQSVPGMAVAVIYQGKPHYYTFGKADIAANKPVTPQTLFELGSISKTFTGVLGGDAIARGEISLDDAVTRYWPQLTGKQWQGIRMLDLATYTAGGLPLQVPDEVTDNASLLRFYQNWQPQWKPGTTRLYANASIGLFGALAVKPSGMPYEQAMTTRVLKPLKLDHTWINVPKAEEAHYAWGYRDGKAVRVSPGMLDAQAYGVKTNVQDMANWVMANMAPENVADASLKQGIALAQSRYWRIGSMYQGLGWEMLNWPVEANTVVETSFGNVALAPLPVAEVNPPAPPVKASWVHKTGSTGGFGSYVAFIPEKQIGIVMLANTSYPNPARVEAAYHILEALQ
For B1, the “binding to CEA” value is listed as “significant binding” in series [1] (pH 6.5) and “very weak binding” in series [1] (pH 7.4).

B2: CAB1.7: best variant of library SW155 from SW149.5; SEQ ID NO:9 (protein)
chain: B1 chain with T100L, T102L, P104A, Y105I, F107N, S163A, S165Y, Y166A, K241D
modifications: CAB1.7 protein variant
On to B2, for which the “binding to CEA / affinity in library screening” value in series [1] is “significantly improved binding to CEA”. The “binding to LS174T cells” value in the series on LS174T cells (pH 6.5) is “closely resembles the binding curve of CAB1.2”; in the series with LS174T cells (pH 7.4, compared to CAB1.2), “significantly weaker binding”. For the same molecule, the “saturation levels of binding curves on LS174T cells” value with LS174T cells (pH 6.5 vs pH 7.4) is given as “pH-dependent”.

B3: SW149.5 (protein)
chain: B1 chain with T100L, T102L, P104A, Y105I, F107N
For the molecule B3, the expression result in the series with host proteases was “improved expression”. Moreover, the “binding to CEA / affinity in library screening” value in series [1] was “improved expression and affinity”.
